Article PMC5159831

Assays:
[1] = biological target: recombinant TACE catalytic domain
MMP7 catalytic domain = biological target: T1, MMP7 catalytic domain
T1 sequence (P09237 whole entry, species assumed, looked up): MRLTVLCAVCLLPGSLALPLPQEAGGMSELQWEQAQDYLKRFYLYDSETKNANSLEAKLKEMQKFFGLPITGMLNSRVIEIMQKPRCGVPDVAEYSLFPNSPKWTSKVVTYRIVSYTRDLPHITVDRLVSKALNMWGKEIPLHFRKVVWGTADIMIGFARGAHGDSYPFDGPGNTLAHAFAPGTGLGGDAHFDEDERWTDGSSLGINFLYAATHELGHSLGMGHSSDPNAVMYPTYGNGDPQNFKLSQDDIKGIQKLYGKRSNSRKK

Sequence of recombinant TACE catalytic domain (P78536 215-671): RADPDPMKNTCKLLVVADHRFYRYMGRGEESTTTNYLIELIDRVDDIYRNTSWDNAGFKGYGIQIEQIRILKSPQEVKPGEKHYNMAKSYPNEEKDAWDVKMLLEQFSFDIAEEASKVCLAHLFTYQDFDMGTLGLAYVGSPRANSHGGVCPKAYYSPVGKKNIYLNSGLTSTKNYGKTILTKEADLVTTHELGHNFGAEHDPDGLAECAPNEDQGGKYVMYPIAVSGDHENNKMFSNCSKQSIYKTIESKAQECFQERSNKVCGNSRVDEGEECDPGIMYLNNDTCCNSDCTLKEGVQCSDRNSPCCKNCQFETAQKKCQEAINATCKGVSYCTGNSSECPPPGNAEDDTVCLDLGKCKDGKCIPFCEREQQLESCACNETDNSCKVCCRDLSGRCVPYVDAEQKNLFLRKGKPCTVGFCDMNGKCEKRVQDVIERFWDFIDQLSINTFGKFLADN
Sequence of MMP9 catalytic domain (P14780 20-707): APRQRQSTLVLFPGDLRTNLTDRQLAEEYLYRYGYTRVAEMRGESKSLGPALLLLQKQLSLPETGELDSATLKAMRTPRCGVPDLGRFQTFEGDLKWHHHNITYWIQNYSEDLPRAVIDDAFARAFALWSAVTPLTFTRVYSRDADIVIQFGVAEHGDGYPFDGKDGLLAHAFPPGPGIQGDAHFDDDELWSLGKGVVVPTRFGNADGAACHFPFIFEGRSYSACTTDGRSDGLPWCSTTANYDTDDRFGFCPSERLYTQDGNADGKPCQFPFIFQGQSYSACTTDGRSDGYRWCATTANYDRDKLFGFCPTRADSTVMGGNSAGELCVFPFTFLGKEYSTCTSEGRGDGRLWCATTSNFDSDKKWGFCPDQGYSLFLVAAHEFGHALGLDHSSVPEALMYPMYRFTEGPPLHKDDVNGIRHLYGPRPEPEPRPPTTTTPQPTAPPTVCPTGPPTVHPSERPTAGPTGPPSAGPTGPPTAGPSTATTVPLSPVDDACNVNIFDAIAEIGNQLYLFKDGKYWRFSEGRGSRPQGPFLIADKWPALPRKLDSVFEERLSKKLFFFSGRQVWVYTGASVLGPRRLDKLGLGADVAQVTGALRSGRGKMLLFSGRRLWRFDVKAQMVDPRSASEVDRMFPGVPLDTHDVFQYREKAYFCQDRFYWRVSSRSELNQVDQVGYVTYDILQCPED

Row | IC50 of inhibition of the enzyme's hydrolysis of a fluorogenic peptide (10 nM MMP9, Mca-PLGL-Dpa-AR 10 μM, 37 °C) (MMP9 catalytic domain) [µM] | IC50 of inhibition of the enzyme's hydrolysis of a fluorogenic peptide (10 nM MT1-MMP, Mca-PLGL-Dpa-AR 10 μM, 37 °C) (MT1-MMP catalytic domain) [µM] | IC50 of inhibition of the enzyme's hydrolysis of a fluorogenic peptide (10 nM TACE, 37 °C) [1] [µM] | IC50 of inhibition of the enzyme's hydrolysis of a fluorogenic peptide (10 nM MMP7, Mca-PLGL-Dpa-AR 10 μM, 37 °C) (MMP7 catalytic domain) [µM] | Substance
1 | 4.34 | 4.65 | 0.307 | – | TACE prodomain (TPD) R58A (from UniProt P78536 23-214) (domain or fragment)
2 | – | – | 0.018 | 5.44 | TACE prodomain double mutant R58A/C184A (TPD-DM) (from UniProt P78536 23-214) (domain or fragment)
